We go through 14 molecules from patent US20240294593A1 (Genentech, published 2024).

In experiment [1] the target is T1, human PD-1-His (human, UniProt Q15116 25-167, limits assumed).
T1 construct: Antigen of the Octet assays; not shown: His tag
Kind of experiment: Octet (BLI), bivalent IgG1 mAb. (BLI is a label-free optical method that tracks binding on a fibre tip over time.)

For experiment [2], the target named is T1, human PD-1-His. Kind of experiment: Octet (BLI), bivalent IgG1 mAb; legend calls the constant apparent (KDapp).
The target of experiment [3] is T1, human PD-1-His. Kind of experiment: Octet (BLI), AHC capture of the bivalent mAb, PD-1 in solution. An excerpt: (§1) In particular, anti-human IgG-Fc (AHC) biosensors were used to capture the test articles and dipped into multiple concentrations of PD-1.
For experiment [4], the target named is T1, human PD-1-His. The experiment can be described thus: Octet (BLI), AHC biosensors capture the bivalent mAb, dipped into multiple concentrations of PD-1; KDapp per legend.
Excerpt: as §1

Experiment [5] deals with T1, human PD-1-His. Kind of experiment: Octet (BLI); antibody captured on anti-human Fc (AHC) biosensors and dipped into multiple concentrations of human PD-1-His.

Numbering of substitutions follows the chain as printed. Numbers in names are those of the source.

T1 sequence (Q15116 25-167 limits assumed): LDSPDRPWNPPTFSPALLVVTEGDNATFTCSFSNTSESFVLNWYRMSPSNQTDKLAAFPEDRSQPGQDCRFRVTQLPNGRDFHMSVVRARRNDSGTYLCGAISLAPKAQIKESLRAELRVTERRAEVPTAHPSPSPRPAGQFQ

B1: H1.182_L1.140 (XENP32428) (antibody, V domains shown)
VH: EVQLVESGGGLVQPGGSLRLSCAASGFTFSSLGMHWVRQAPGKGLEWVSYISGGSSIIYYADSVKGRFTISRDNAKNSLYLQMNSLRAEDTAVYYCARGGLLVFSPDYWGQGTLVTVSS
VL: DIVMTQSPDSLAVSLGERATINCKSSQSLLHSGNQYNYLTWYQQKPGQPPKLLIYWASTRESGVPDRFTGSGSGTDFTLTISSLQAEDVAVYYCQNDYTYPFTFGSGTKLEIKR
notes: VH-F34L/S55G/R109L/W112F, VL-N31H/K36Y/S99T (Xencor #); Kabat positions VH-32/52A/97/100, VL-27D/30/93; also called mAb C[PD-1]_H1.182_L1.140; copies: 2 + 2
In the case of B1, in the experiment with human PD-1-His [1], the koff (in general, the rate constant with which the complex falls apart) is 0.000176 s⁻¹ and the kon (commonly a measure of how fast the partners come together) was 187000 M⁻¹ s⁻¹. Besides, the Kd with human PD-1-His [2] was 0.943 nM.

B2: H1.218_L1.1 (XENP32834) (antibody, human IgG1, kappa, V domains shown)
VH: B1 VH with L32F, G53S, L101R, L102Q, S105T
VL: B1 VL with Y36K, T99S
notes: VH substitution L110Q/W112F/S113T (Xencor #); L98Q/W100F/S100aT (Kabat); also called mAb C[PD1]_H1.218_L1.1_IgG1_PVA_/S267K
In the experiment with human PD-1-His [3], B2 registered a koff of 0.0013 s⁻¹ and a kon of 66500 M⁻¹ s⁻¹. Moreover, the Kd with human PD-1-His [4] was 19.6 nM.

B3: H1.221_L1.1 (XENP32837) (antibody, human IgG1, kappa, V domains shown)
VH: B1 VH with L32F, G53S, L101R, L102R
VL: B1 VL with Y36K, T99S
notes: VH substitution L110R/W112F (Xencor #); L98R/W100F (Kabat); also called mAb C[PD1]_H1.221_L1.1_IgG1_PVA_/S267K
In the experiment with human PD-1-His [3], B3 had an off-rate constant (koff) of 0.00477 s⁻¹ and a kon of 136000 M⁻¹ s⁻¹. Moreover, the Kd with human PD-1-His [4] came out at 35.1 nM.

B4: H1.213_L1.1 (XENP32829) (antibody, human IgG1, kappa, V domains shown)
VH: B1 VH with L32F, G53S, L101R, L102S, V103I
VL: B1 VL with Y36K, T99S
notes: VH substitution L110S/V111I/W112F (Xencor #); L98S/V99I/W100F (Kabat); also called mAb C[PD1]_H1.213_L1.1_IgG1_PVA_/S267K
Turning to B4, in the experiment with human PD-1-His [3], the koff stood at 0.0029 s⁻¹ and the on-rate (kon) came to 105000 M⁻¹ s⁻¹. Further, in the experiment with human PD-1-His [4], the Kd was determined as 27.6 nM.

B5: XENP28538 (humanized variant of mAb C, bivalent human IgG1) (antibody, V domains shown)
VH: EVQLVESGGGLVKPGGSLRLSCAASGFTFSSFGMHWVRQAPGKGLEWVGYISSGSSIIYYADPVKGRFTISRDNSKNTLYLQMNSLKTEDTAVYYCARGGRLVWSPDYWGQGTLVTVSS
VL: B1 VL with H31N, Y36K, T99S
notes: Human IgG1 with E233P/L234V/L235A/G236del/S267K
In the case of B5, the binding result in the experiment with human PD-1-His [5] is on record as “no binding”.

B6: H1.219_L1.1 (XENP32835) (antibody, human IgG1, kappa, V domains shown)
VH: B1 VH with L32F, G53S, L101S, V103Y, F104L
VL: B1 VL with Y36K, T99S
notes: VH substitution R109S/V111Y/W112L (Xencor #) but R97S/V99Y/W100F in the Kabat column: the two columns disagree; also called mAb C[PD1]_H1.219_L1.1_IgG1_PVA_/S267K
In the experiment with human PD-1-His [3], B6 came in with a koff of 0.00489 s⁻¹ and an association rate constant (kon) of 197000 M⁻¹ s⁻¹. Moreover, the Kd with human PD-1-His [4] came to 24.8 nM.

B7: mAb C[PD1]_H1.176_L1.140 (bivalent IgG1) (antibody, V domains shown)
VH: B1 VH with G53S, L101R
VL: DIVMTQSPDSLAVSLGERATINCKSSQSLLHSGNQYNYLTWYQQKPGQPPKLLIYWASTRESGVPDRFTGSGSGTDFTLTISSLQAEDVAVYYCQNDYTYPFTFGSGTKLEIK
notes: Bivalent IgG1 format with E233P/L234V/L235A/G236_/S267K
In the case of B7, in the experiment with human PD-1-His [1], the koff is 0.000278 s⁻¹ and the on-rate (kon) is 131000 M⁻¹ s⁻¹. Moreover, in the experiment with human PD-1-His [2], the Kd came to 2.13 nM.

B8: H1.223_L1.1 (XENP32839) (antibody, human IgG1, kappa, V domains shown)
VH: B1 VH with L32F, G53S, L101H, L102Q
VL: B1 VL with Y36K, T99S
notes: VH substitution R109H/L110Q/W112F (Xencor #); R97H/L98Q/W100F (Kabat); also called mAb C[PD1]_H1.223_L1.1_IgG1_PVA_/S267K
In the experiment with human PD-1-His [3], B8 displayed a koff of 0.00436 s⁻¹ and a kon of 123000 M⁻¹ s⁻¹. Moreover, the Kd in the experiment with human PD-1-His [4] is 35.4 nM.

B9: H1.179_L1.140 (XENP32425) (antibody, V domains shown)
VH: B1 VH with L101Y
VL: B1 VL
notes: VH-F34L/S55G/R109Y/W112F, VL-N31H/K36Y/S99T (Xencor #); Kabat positions VH-32/52A/97/100, VL-27D/30/93; also called mAb C[PD-1]_H1.179_L1.140; copies: 2 + 2
In the experiment with human PD-1-His [1], B9 came in with a koff of 0.00017 s⁻¹ and a kon of 197000 M⁻¹ s⁻¹. Also, the Kd with human PD-1-His [2] was found to be 0.864 nM.

B10: H1.186_L1.140 (XENP32432) (antibody, V domains shown)
VH: B1 VH with L101A
VL: B1 VL
notes: VH-F34L/S55G/R109A/W112F, VL-N31H/K36Y/S99T (Xencor #); Kabat positions VH-32/52A/97/100, VL-27D/30/93; also called mAb C[PD-1]_H1.186_L1.140; copies: 2 + 2
On to B10, for which, in the experiment with human PD-1-His [1], the koff turned out to be 0.000179 s⁻¹ and the kon is 189000 M⁻¹ s⁻¹. Further, the Kd in the experiment with human PD-1-His [2] came out at 0.945 nM.

B11: mAb C[PD1]_H1.180_L1.140 (bivalent IgG1) (antibody, V domains shown)
VH: B1 VH with L101E
VL: B1 VL
notes: Bivalent IgG1 format with E233P/L234V/L235A/G236_/S267K; copies: 2 + 2
For the molecule B11, in the experiment with human PD-1-His [1], the koff amounted to 0.000154 s⁻¹ and the kon turned out to be 256000 M⁻¹ s⁻¹. In addition, in the experiment with human PD-1-His [2], the Kd came to 0.601 nM.

B12: H1.214_L1.1 (XENP32830) (antibody, human IgG1, kappa, V domains shown)
VH: B1 VH with L32F, G53S, V103I, F104L
VL: B1 VL with Y36K, T99S
notes: VH substitution R109L/V111I/W112L (Xencor #) but R97L/V99I/W100F in the Kabat column: the two columns disagree; also called mAb C[PD1]_H1.214_L1.1_IgG1_PVA_/S267K
In the experiment with human PD-1-His [3], B12 displayed a koff of 0.0061 s⁻¹ and a kon of 166000 M⁻¹ s⁻¹. The Kd with human PD-1-His [4] was 36.7 nM.

B13: H1.222_L1.1 (XENP32838) (antibody, human IgG1, kappa, V domains shown)
VH: B1 VH with L32F, G53S, L101R, F104L, P106S
VL: B1 VL with Y36K, T99S
notes: VH substitution W112L/P114S (Xencor #) but W100F/P100bS in Kabat; also called mAb C[PD1]_H1.222_L1.1_IgG1_PVA_/S267K
For the molecule B13, in the experiment with human PD-1-His [3], the koff turned out to be 0.00565 s⁻¹ and the kon turned out to be 114000 M⁻¹ s⁻¹. This molecule also returned a Kd with human PD-1-His [4] of 49.4 nM.

B14: XENP28519 (humanized mAb A, bivalent mAb) (antibody, human IgG1, kappa, V domains shown)
VH: QVQLQESGPGLVKPSQTLSLTCTVSGHSITSDYAWNWIRQPPGKKLEWIGYISYSGYTTYNPSLKSRVTISRDTSKNQFSLKLSSVTAADTAVYFCARDLDYGPWFAYWGQGTLVTVSS
VL: DIQMTQSPSSLSASVGDRVTITCRASENIHNYLAWYQQKPGKSPKLLVYNVKTLADGVPSRFSGSGSGTDYTLTISSLQPEDFATYYCQHFWSSPWTFGGGTKVEIKR
As for B14, in the experiment with human PD-1-His [5], the Kd was 11.9 nM.
